Source: the RNAGym collection of RNA variant scans (doi:10.7554/elife.90254)

B1: LINE1-mini (parent)
chain: GGCAGAGCUCAACACAGCGUGGCAAAGUGGCUGUGGCUAGACUGCC

Variants of: B1
Assay: self-cleavage, relative activity (ratio to wild type); higher = more cleavage; in vitro, sequencing; the parent is a self-cleaving ribozyme

| Variant | self-cleavage |
| --- | --- |
| C3A G17A | 0.16 |
| U9A U34A | 0.21 |
| C8G G19U | 0.04 |
| C37G U38C | 0.04 |
| A6G G36C | 0.09 |
| U28G | 0.64 |
| G19A U20C | 0.46 |
| G7A U9G | 0.08 |
| A14U A24G | 0.79 |
| U9A C45A | 0.31 |
| G1C C3G | 0.1 |
| G19C U28A | 1.2 |
| U20C C45U | 1.12 |
| G1U C45G | 0.1 |
| G30U U43A | 0.11 |
| G17A C18A | 0.09 |
| C13G G29A | 0.19 |
| G2A G40U | 0.29 |
| G27A G35A | 0.19 |
| A6G U43C | 0.09 |
| G21A A41U | 0.83 |
| U38G C46G | 0.02 |
| G7A U34C | 0.09 |
| G36A C46A | 0.14 |

| Variant | self-cleavage |
| --- | --- |
| C23A C46G | 1.53 |
| C23A C46U | 1.1 |
| G2U G27A | 0.15 |
| G1U A26U | 0.34 |
| C18A A41U | 0.34 |
| G5A U38G | 0.02 |
| C13U G27U | 0.17 |
| C15G G22U | 0.3 |
| C10U G19A | 0.32 |
| C8A A12C | 0.04 |
| C13G A16U | 0.15 |
| G36C A39U | 0.23 |
| U38A A39C | 0.49 |
| G21A U43G | 0.14 |
| U28C C37A | 0.03 |
| U38C C46A | 1.27 |
| C8A U20G | 0.15 |
| A12U C13A | 0.21 |
| C3G G29U | 0.55 |
| G19C A39C | 0.05 |
| A24C G36C | 0.1 |
| U9A G44U | 0.09 |
| G44A C45G | 0.2 |
| G19C C31U | 0.58 |

| Variant | self-cleavage |
| --- | --- |
| A16G A25C | 0.06 |
| U9C C31G | 0.02 |
| U38A C42A | 0.1 |
| U9A G17A | 0.07 |
| A26U C45G | 0.64 |
| U20A U32C | 0.09 |
| G2C G33A | 0.04 |
| G33C C45U | 0.05 |
| C10U C46G | 0.32 |
| G2U C42G | 0.02 |
| C3U A4U | 0.15 |
| G19U G22C | 0.5 |
| G35U U43C | 0.05 |
| C13G U20C | 0.1 |
| U28G G44U | 0.23 |
| G36U A41U | 0.1 |
| G36U A41G | 0.15 |
| A4G G27U | 0.31 |
| G21U G22A | 1.03 |
| G5A C45A | 0.22 |
| C8U A11C | 0.07 |
| C10G U38G | 0.03 |
| C3U C13A | 0.15 |
| G5U C37G | 0.07 |

| Variant | self-cleavage |
| --- | --- |
| A12G A26U | 0.03 |
| G1C G7U | 0.03 |
| A14U C37U | 0.03 |
| G21U A41G | 0.28 |
| C13A U34A | 0.07 |
| A14U U38C | 0.17 |
| G27C G29U | 0.51 |
| U9A U20C | 0.12 |
| G5A G36C | 0.05 |
| G5A G36U | 0.14 |
| G29U U43G | 0 |
| G29U G30U | 1.72 |
| G30U A41U | 0.64 |
| G30U A41C | 0.06 |
| A16U U28C | 0.55 |
| A16U A41C | 0.05 |
| C15G C23A | 0.06 |
| C15G C23U | 0.08 |
| G21C G40A | 0.04 |
| G17C G35A | 0.11 |
| A16U A26U | 0.13 |
| G5U G40C | 0.05 |
| G1U A4C | 0.06 |
| C15G G40A | 0.08 |

| Variant | self-cleavage |
| --- | --- |
| C3A C18G | 0.2 |
| A16G C31G | 0.02 |
| G21U G30C | 2.18 |
| A16U G17C | 0.2 |
| G27A C45U | 1.88 |
| U38C U43C | 0.11 |
| G2U G36C | 0.05 |
| G2C A4G | 0.16 |
| U9C G19U | 0.08 |
| G2C A12U | 0.12 |
| A25G G33A | 0.04 |
| G27U A39C | 0.22 |
| C15U A41U | 0.33 |
| U20A G36A | 0.26 |
| G2U C3A | 0.48 |
| A24U C45U | 0.91 |
| G29C G30U | 0.67 |
| C15A C18U | 0.14 |
| G19U G29A | 0.93 |
| A24U A26U | 1.34 |
| G21C A24U | 0.63 |
| G21C A24G | 0.44 |
| G7U G36U | 0.05 |
| C18U A26U | 1.72 |

| Variant | self-cleavage |
| --- | --- |
| C13U U43C | 0.1 |
| A6G G27U | 0.08 |
| C13A G35U | 1.13 |
| C15U G21U | 1.46 |
| C15U U34G | 0.07 |
| A4G G30U | 0.45 |
| A11C G30U | 0.05 |
| G1A G2U | 0.47 |
| G21U C23U | 1.38 |
| G17C A24G | 0.71 |
| G22A G35A | 0.23 |
| U32C C46U | 0.2 |
| A4C G33A | 0.29 |
| A24G U28A | 0.94 |
| C3A G22A | 0.52 |
| C3A G22C | 0.58 |
| A11U C45A | 0.05 |
| G29C C31U | 0.93 |
| C15U A24C | 0.25 |
| G2C G7C | 0.14 |
| C3A G19C | 0.18 |
| U9A U38C | 0.12 |
| A11C A26U | 0.11 |
| G7A G33A | 0.29 |

| Variant | self-cleavage |
| --- | --- |
| G22C G30U | 0.53 |
| G2C G30A | 0.24 |
| A26C C31G | 0.06 |
| A14C G21U | 0.07 |
| A4C U34A | 0 |
| U9G U38C | 0.09 |
| G27A G30U | 1.61 |
| G30A A41C | 0.07 |
| C23G C46A | 1.07 |
| C13U G22U | 0.32 |
| G5C A12G | 0.05 |
| G5A C31U | 0.06 |
| C3G C42A | 0.28 |
| C3G C42G | 0.05 |
| G1C A12C | 0.02 |
| G33C G40U | 0.06 |
| G7A A41U | 0.18 |
| G17U A39G | 0.04 |
| C10U G40C | 0.04 |
| G7U G22C | 0.04 |
| A4C G29U | 0.45 |
| A12C A26G | 0.01 |
| G29A U34C | 0.08 |
